In patent publication US20260176254A1, “INHIBITORS OF PROSTATE SPECIFIC MEMBRANE ANTIGEN AND USE THEREOF” (SHANGHAI SINOTAU BIOTECH. CO., LTD, priority 2023, published 2026):
Values belong to the molecule of their own block, whether it stands above or below them.

Experiments:
[1] = target: T1, recombinant human PSMA (rhPSMA) (Homo sapiens, UniProt Q04609); experiment: Naaladase assay (fluorescence-based Naaladase activity inhibition); type: biochemical; details: rhPSMA 0.4 μg/mL, substrate N-Acetyl-Asp-Glu 40 μM, 37° C. one hour
T1 construct: purchased Sino Biological
Protocol: Naaladase activity inhibition was determined using a fluorescence-based assay. Briefly, the solution containing the substrate N-Acetyl-Asp-Glu (Sigma-Aldrich) at 40 μM and the compound at concentrations from 0.15 nM to 1000 nM was mixed at equal volume with recombinant human PSMA (rhPSMA, Sino Biological) at 0.4 μg/mL, in assay buffer (50 mM HEPES, 100 mM NaCl, pH 7.5). The enzymatic reaction was proceeded by incubation at 37° C. for one hour and then stopped by heating at 95° C. for 5 minutes. A solution of 15 mM ortho-phthaldialdehyde (Sigma-Aldrich) was added to all vials and incubated for 10 min at ambient temperature. The reaction solutions were loaded onto a 96-well flat clear bottom black microplates (Corning) and read at excitation and emission wavelengths of 330 and 450 nm, respectively, using a microplate reader (Tecan). The data were analyzed by a one-site total binding regression algorithm of GraphPad Prism (GraphPad Software).

[2] = Tissue biodistribution in 22Rv1 tumor mouse model; set-up: species or system mice; details: male, nude, in vivo, iv, total radioactivity
Source text: (§1) LnCAP and 22RV1 CDX xenograft tumor models were generated by inoculating 5×10^6 cells/site subcutaneously in male SCID or nude mice (Vital River), respectively. Animals were housed according to IACUC guidance and had accessed to food and water ad libitium. Animals were used for biodistribution study when the tumor dimensions reached around 0.2-0.3 cm^3. […] At each tome point, animals were sacrificed and tissues were collected, weighted, and subjected to radioactivity measurements using gamma counter. Radioactivity in the tissues was presented in % ID/g (percent of injected dose per gram).

[3] = Tissue biodistribution in LnCAP tumor mouse model; set-up: species or system mice; details: male, SCID, in vivo, iv, total radioactivity
Source text: as §1

[4] = Tissue biodistribution: Salivary Gland

T1 sequence (Q04609 whole entry): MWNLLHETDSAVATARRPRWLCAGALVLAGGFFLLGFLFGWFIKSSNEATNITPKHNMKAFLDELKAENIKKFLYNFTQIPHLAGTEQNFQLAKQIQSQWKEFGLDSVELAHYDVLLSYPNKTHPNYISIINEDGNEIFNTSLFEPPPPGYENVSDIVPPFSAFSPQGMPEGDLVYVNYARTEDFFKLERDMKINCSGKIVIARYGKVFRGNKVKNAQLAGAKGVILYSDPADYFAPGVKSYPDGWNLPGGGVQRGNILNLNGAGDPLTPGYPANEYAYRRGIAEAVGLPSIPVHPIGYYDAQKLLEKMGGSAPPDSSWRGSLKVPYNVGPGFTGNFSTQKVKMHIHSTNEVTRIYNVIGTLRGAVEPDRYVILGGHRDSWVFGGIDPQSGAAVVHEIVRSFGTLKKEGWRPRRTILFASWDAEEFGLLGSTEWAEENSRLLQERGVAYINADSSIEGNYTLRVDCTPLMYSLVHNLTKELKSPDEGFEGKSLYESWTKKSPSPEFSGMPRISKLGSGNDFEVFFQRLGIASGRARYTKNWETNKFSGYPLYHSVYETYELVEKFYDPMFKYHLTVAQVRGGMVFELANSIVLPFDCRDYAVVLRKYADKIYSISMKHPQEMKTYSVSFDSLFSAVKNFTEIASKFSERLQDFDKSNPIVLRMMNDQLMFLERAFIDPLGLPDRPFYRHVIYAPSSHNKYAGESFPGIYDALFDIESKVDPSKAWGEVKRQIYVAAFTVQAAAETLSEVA

- IC50 [1]: 8.6 nM
Structure (SMILES): O=C(O)CC[C@H](NC(=O)N[C@@H](CCCCNC(=O)[C@H](Cc1ccc2ccccc2c1)Nc1cc(NC23CCC(NC(=O)CN4CCN(CC(=O)O)CCN(CC(=O)O)CCN(CC(=O)O)CC4)(CC2)CC3)ncn1)C(=O)O)C(=O)O [E24]

- IC50 [1]: 3.7 nM
Structure (SMILES): O=C(O)CC[C@H](NC(=O)N[C@@H](CCCCNC(=O)C(Cc1ccc2ccccc2c1)Nc1nnc(C23CCC(CNC(=O)CN4CCN(CC(=O)O)CCN(CC(=O)O)CCN(CC(=O)O)CC4)(CC2)CC3)o1)C(=O)O)C(=O)O (single isomer, unassigned) [E18]

- IC50 [1]: 1.5 nM
Structure (SMILES): O=C(O)CN1CCN(CC(=O)O)CCN(CC(=O)NC23CCC(Nc4c(N[C@@H](Cc5ccc6ccccc6c5)C(=O)NCCCC[C@H](NC(=O)N[C@@H](CNC(=O)C(=O)O)C(=O)O)C(=O)O)c(=O)c4=O)(CC2)CC3)CCN(CC(=O)O)CC1 [E21, (4S,8S,15S)-15-((3,4-dioxo-2-((4-(2-(4,7,10-tris(carboxymethyl)-1,4,7,10-tetraazacyclododecan-1-yl)acetamido)bicyclo[2.2.2]octan-1-yl)amino)cyclobut-1-en-1-yl)amino)-16-(naphthalen-2-yl)-1,6,14-trioxo-2,5,7,13-tetraazahexadecane-1,4,8-tricarboxylic acid]

- IC50 [1]: 1.8 nM
Structure (SMILES): NC(=O)CN1CCN(CC(=O)O)CCN(Cc2nnc(C34CCC(Nc5c(N[C@@H](Cc6c7ccccc7cc7ccccc67)C(=O)NCCCC[C@H](NC(=O)N[C@@H](CCCC(=O)O)C(=O)O)C(=O)O)c(=O)c5=O)(CC3)CC4)o2)CCN(CC(=O)O)CC1 [E20]

Structure (SMILES): O=C(O)CC[C@H](NC(=O)N[C@@H](CCCCNC(=O)[C@H](Cc1ccc2ccccc2c1)NC(=O)[C@H]1CC[C@H](CNC(=O)CN2CCN(CC(=O)O)CCN(CC(=O)O)CCN(CC(=O)O)CC2)CC1)C(=O)O)C(=O)O [[^177Lu]Lu-PSMA-617, metal not drawn, reference compound]
- tissue uptake dose at 2 h [2]: 4.15 ± 0.06 %ID
- tissue uptake dose at 24 h [2]: 1.21 ± 0.03 %ID
- tissue uptake at 2 h ([2]; Tissue biodistribution: Blood): 0.08 ± 0.03 %ID/g
- tissue uptake at 6 h ([2]; Tissue biodistribution: Blood): 0.03 ± 0.01 %ID/g
- tissue uptake at 24 h ([2]; Tissue biodistribution: Bone): 0.11 ± 0.03 %ID/g
- tissue uptake at 2 h ([2]; Tissue biodistribution: Heart): 0.1 ± 0.02 %ID/g
- tissue uptake at 6 h ([2]; Tissue biodistribution: Heart): 0.06 ± 0.01 %ID/g
- tissue uptake at 24 h ([2]; Tissue biodistribution: Heart): 0.05 ± 0.01 %ID/g
- tissue uptake at 72 h ([2]; Tissue biodistribution: Heart): 0.05 ± 0.01 %ID/g
- tissue uptake at 168 h ([2]; Tissue biodistribution: Heart): 0.06 ± 0.01 %ID/g
- tissue uptake at 2 h ([2]; Tissue biodistribution: Kidney): 53 ± 27.4 %ID/g
- tissue uptake at 6 h ([2]; Tissue biodistribution: Kidney): 12.3 ± 6.38 %ID/g
- tissue uptake at 24 h ([2]; Tissue biodistribution: Kidney): 1.35 ± 0.48 %ID/g
- tissue uptake at 168 h ([2]; Tissue biodistribution: Kidney): 0.08 ± 0.03 %ID/g
- tissue uptake at 2 h ([2]; Tissue biodistribution: Liver): 0.09 ± 0.02 %ID/g
- tissue uptake at 6 h ([2]; Tissue biodistribution: Liver): 0.08 ± 0.02 %ID/g
- tissue uptake at 24 h ([2]; Tissue biodistribution: Liver): 0.05 ± 0.01 %ID/g
- tissue uptake at 72 h ([2]; Tissue biodistribution: Liver): 0.04 ± 0.01 %ID/g
- tissue uptake at 168 h ([2]; Tissue biodistribution: Liver): 0.03 ± 0.01 %ID/g
- tissue uptake at 2 h ([2]; Tissue biodistribution: Lung): 0.29 ± 0.05 %ID/g
- tissue uptake at 24 h ([2]; Tissue biodistribution: Lung): 0.06 ± 0.01 %ID/g
- tissue uptake at 72 h ([2]; Tissue biodistribution: Lung): 0.05 ± 0.01 %ID/g
- tissue uptake at 168 h ([2]; Tissue biodistribution: Lung): 0.05 %ID/g
- tissue uptake at 2 h ([2]; Tissue biodistribution: Muscle): 0.09 ± 0.03 %ID/g
- tissue uptake at 6 h ([2]; Tissue biodistribution: Muscle): 0.05 ± 0.02 %ID/g
- tissue uptake at 6 h [2, 4]: 0.1 ± 0.02 %ID/g
- tissue uptake at 24 h [2, 4]: 0.06 ± 0.01 %ID/g
- tissue uptake at 72 h [2, 4]: 0.05 ± 0.02 %ID/g
- tissue uptake at 168 h [2, 4]: 0.05 ± 0.01 %ID/g
- tissue uptake at 2 h ([2]; Tissue biodistribution: Spleen): 0.78 ± 0.11 %ID/g
- tissue uptake at 72 h ([2]; Tissue biodistribution: Spleen): 0.11 ± 0.04 %ID/g
- tissue uptake at 168 h ([2]; Tissue biodistribution: Spleen): 0.09 ± 0.03 %ID/g
- tissue uptake at 2 h ([2]; Tissue biodistribution: Tumor): 11.4 ± 2.27 %ID/g
- tissue uptake at 6 h ([2]; Tissue biodistribution: Tumor): 12.6 ± 3.23 %ID/g
- tissue uptake at 24 h ([2]; Tissue biodistribution: Tumor): 9.84 ± 1.45 %ID/g
- tissue uptake at 72 h ([2]; Tissue biodistribution: Tumor): 5.57 ± 0.6 %ID/g
- tissue uptake at 168 h ([2]; Tissue biodistribution: Tumor): 0.96 ± 0.5 %ID/g
- tissue uptake dose at 2 h [3]: 8.53 ± 0.64 %ID
- tissue uptake dose at 6 h [3]: 3.71 ± 1.76 %ID
- tissue uptake dose at 24 h [3]: 4.44 ± 3.53 %ID
- tissue uptake dose at 72 h [3]: 1.03 ± 0.18 %ID
- tissue uptake dose at 168 h [3]: 0.73 ± 0.03 %ID
- tissue uptake at 2 h ([3]; Tissue biodistribution: Blood): 0.38 ± 0.05 %ID/g
- tissue uptake at 6 h ([3]; Tissue biodistribution: Blood): 0.08 ± 0.04 %ID/g
- tissue uptake at 24 h ([3]; Tissue biodistribution: Blood): 0.03 ± 0.01 %ID/g
- tissue uptake at 6 h ([3]; Tissue biodistribution: Bone): 0.2 ± 0.01 %ID/g
- tissue uptake at 2 h ([3]; Tissue biodistribution: Gland): 0.56 ± 0.04 %ID/g
- tissue uptake at 24 h ([3]; Tissue biodistribution: Gland): 0.07 %ID/g
- tissue uptake at 72 h ([3]; Tissue biodistribution: Gland): 0.06 %ID/g
- tissue uptake at 168 h ([3]; Tissue biodistribution: Gland): 0.06 ± 0.01 %ID/g
- tissue uptake at 24 h ([3]; Tissue biodistribution: Heart): 0.06 ± 0.02 %ID/g
- tissue uptake at 72 h ([3]; Tissue biodistribution: Heart): 0.06 ± 0.01 %ID/g
- tissue uptake at 168 h ([3]; Tissue biodistribution: Heart): 0.07 %ID/g
- tissue uptake at 2 h ([3]; Tissue biodistribution: Kidney): 66.9 ± 96.1 %ID/g
- tissue uptake at 6 h ([3]; Tissue biodistribution: Kidney): 45.6 ± 37.1 %ID/g
- tissue uptake at 24 h ([3]; Tissue biodistribution: Kidney): 3.25 ± 1.04 %ID/g
- tissue uptake at 72 h ([3]; Tissue biodistribution: Kidney): 0.96 ± 0.33 %ID/g
- tissue uptake at 2 h ([3]; Tissue biodistribution: Liver): 0.21 ± 0.03 %ID/g
- tissue uptake at 6 h ([3]; Tissue biodistribution: Liver): 0.11 ± 0.04 %ID/g
- tissue uptake at 24 h ([3]; Tissue biodistribution: Liver): 0.07 ± 0.02 %ID/g
- tissue uptake at 72 h ([3]; Tissue biodistribution: Liver): 0.06 ± 0.01 %ID/g
- tissue uptake at 168 h ([3]; Tissue biodistribution: Liver): 0.04 ± 0.01 %ID/g
- tissue uptake at 2 h ([3]; Tissue biodistribution: Lung): 0.91 ± 0.06 %ID/g
- tissue uptake at 24 h ([3]; Tissue biodistribution: Lung): 0.09 ± 0.02 %ID/g
- tissue uptake at 72 h ([3]; Tissue biodistribution: Lung): 0.05 ± 0.01 %ID/g
- tissue uptake at 168 h ([3]; Tissue biodistribution: Lung): 0.05 ± 0.01 %ID/g
- tissue uptake at 6 h ([3]; Tissue biodistribution: Muscle): 0.08 ± 0.02 %ID/g
- tissue uptake at 168 h ([3]; Tissue biodistribution: Muscle): 0.03 ± 0.02 %ID/g
- tissue uptake at 2 h ([3]; Tissue biodistribution: Spleen): 0.7 ± 0.21 %ID/g
- tissue uptake at 6 h ([3]; Tissue biodistribution: Spleen): 0.36 ± 0.04 %ID/g
- tissue uptake at 2 h ([3]; Tissue biodistribution: Tumor): 30.2 ± 5.26 %ID/g
- tissue uptake at 6 h ([3]; Tissue biodistribution: Tumor): 27.4 ± 7.91 %ID/g
- tissue uptake at 24 h ([3]; Tissue biodistribution: Tumor): 19.8 ± 4.66 %ID/g
- tissue uptake at 72 h ([3]; Tissue biodistribution: Tumor): 11.9 ± 1.2 %ID/g
- tissue uptake at 168 h ([3]; Tissue biodistribution: Tumor): 4.74 ± 1.95 %ID/g
